We go through 1 substance from US20090286279.

Data set [1] concerns the target sulfo-hirudin ([Leu^1, Thr^2]-hirudin with sulfotyrosine at position 63, expressed in E. coli from pBAD-HirudinTAG) (UniProt P01050).
Data set [2] addresses [Leu^1, Thr^2]-63-desulfo-hirudin (Lepirudin (Refludan)) (UniProt P01050).

Turning to human α-thrombin (Diapharma), the “thrombin activity (cleavage of fluorogenic substrate Boc-Asp(OBzl)-Pro-Arg-MCA, fluorescence intensity over time)” value in data set [1] is “Cleavage of the fluorogenic substrate by thrombin, whose activity is inhibited to different degrees by sulfo-hirudin and desulfo-hirudin”; in data set [2], “Cleavage of the fluorogenic substrate by thrombin, whose activity is inhibited to different degrees by sulfo-hirudin and desulfo-hirudin”.
